Reference: publication PMC8726733 (mAbs, 2021)

What was measured:
[1] = molecular target: biotinylated avitag-labeled canine CTLA4 (dog, UniProt Q9XSI1, biotin (biotinylated avitag)); assay: ELISA
[2] = molecular target: feline CTLA4 of feline CD5+ leucocytes (Felis catus, endogenous; allele not …, UniProt Q9XSY7); assay: flow cytometry on cells

Chain of biotinylated avitag-labeled canine CTLA4 (Q9XSI1 36-161): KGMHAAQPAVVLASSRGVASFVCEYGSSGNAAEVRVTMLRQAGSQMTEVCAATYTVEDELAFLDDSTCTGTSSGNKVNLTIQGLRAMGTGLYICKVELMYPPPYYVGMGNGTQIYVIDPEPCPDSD

Binder	binding result [1]	binding result [2]
A1 soluble canine anti-cCTLA4 scFv (scFv, V domains shown) VH: EVQLVESGGDLVKPAGSLRLSCVASGFSFSSYAMNWVRQAPGKGLQWIAGINSGGSSTSHIDAIKGRFTISRDNAKNTLYLQMNSLRAEDTAVYYCAISNWAYWGQGTLVTVSS VL: QAVLNQPASVSGSLGQRVTISCTGSSSDIGKSYVAWYQQLPGTGPRTLINVDGNRASGVPDRFSVSRSGNTATLTISGLQAEDEADYHCSSWDWSLHTYVFGSGTQLTIL	binds	
A1mut2 fully canine IgGA (antibody, V domains shown) VH: EVQLVETGGDLVKPGGSLRLSCVASGFSFSSYAMNWVRQAPEKGLQLVGGINSGGSSTYYTDAVKGRFTISRDNAKNTVYLQMNSLRAEDTAVYYCAISNWAYWGQGTLVTVSS VL: QAVLNQPASVSGSLGQRVTISCTGSSSDIGKSYVAWYQQLPGTGPRTLINVDGNRASGVPDRFSVSRSGNTATLTISGLQAEDEADYHCSSWDWSLHTYVFGSGTQLTIL		binds
